In patent publication US20220056139A1 one finds fold higher ED50 than chLym-1 data, which are given here for one molecule.

The target in this experiment is HLA-DR (human). Kind of experiment: flow cytometry on Raji cells, APC mouse anti-human IgG (FIG. 21B). On the technique in general: In flow cytometry, cells or beads pass a laser one at a time.

B1: huLym-1-B antibody (antibody, human IgG1, V domains shown)
VH: EVQLVESGGGLVQPGRSLRLTCTASGFSLTSYGVHWVRQPPGKGLEWLAVIWSDGSTTYNSALKSRLTISKDNSKSQVYLQMNSLRAEDTAVYYCARHYGSTLAFASWGQGTLVTVSS
VL: DIQMTQSPSSLSASVGDRVTITCRASVNIYSYLAWYQQKPGKAPNLLIYNAKILAEGVPSRFSGSGSGTDFTLTISSLQPEDFASYYCQHHYGTFTFGQGTKVEIK
In turn, B1 registered a fold higher ED50 than chLym-1 of 2 fold.
